From US20250034275A1 (CHIA TAI TIANQING PHARMACEUTICAL GROUP, published 2025)

T1: human Trop-2 (on the surface of human cell lines) (human, UniProt P09758 27-323)
T1 sequence: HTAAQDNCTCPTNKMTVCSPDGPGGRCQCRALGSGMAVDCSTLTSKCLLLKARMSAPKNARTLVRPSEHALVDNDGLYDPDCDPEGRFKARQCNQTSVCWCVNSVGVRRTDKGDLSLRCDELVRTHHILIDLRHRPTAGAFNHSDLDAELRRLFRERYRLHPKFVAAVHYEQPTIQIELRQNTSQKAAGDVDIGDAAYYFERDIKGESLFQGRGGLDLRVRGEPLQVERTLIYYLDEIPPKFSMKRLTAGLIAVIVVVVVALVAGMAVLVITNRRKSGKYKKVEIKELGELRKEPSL

T2: human Trop-2-His (human, UniProt P09758 27-274, limits assumed)
T2 construct: by analogy with the macaque construct it is probably the extracellular domain with a His tag; also called Trop-2-His protein
T2 sequence: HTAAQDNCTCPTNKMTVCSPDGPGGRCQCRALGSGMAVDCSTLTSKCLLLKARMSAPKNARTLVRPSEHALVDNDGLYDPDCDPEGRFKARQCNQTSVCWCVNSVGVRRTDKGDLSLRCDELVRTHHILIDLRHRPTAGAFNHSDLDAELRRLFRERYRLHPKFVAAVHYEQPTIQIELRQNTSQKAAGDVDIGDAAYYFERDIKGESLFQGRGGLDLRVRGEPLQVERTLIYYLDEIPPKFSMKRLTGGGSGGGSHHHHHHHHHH

T3: Macaque Trop-2-His (macaque, UniProt P09758 27-274 (human entry))
T3 construct: Extracellular domain of macaque Trop-2 recombinantly linked to His; also called monkey Trop-2-His protein; monkey Trop-2
T3 chain: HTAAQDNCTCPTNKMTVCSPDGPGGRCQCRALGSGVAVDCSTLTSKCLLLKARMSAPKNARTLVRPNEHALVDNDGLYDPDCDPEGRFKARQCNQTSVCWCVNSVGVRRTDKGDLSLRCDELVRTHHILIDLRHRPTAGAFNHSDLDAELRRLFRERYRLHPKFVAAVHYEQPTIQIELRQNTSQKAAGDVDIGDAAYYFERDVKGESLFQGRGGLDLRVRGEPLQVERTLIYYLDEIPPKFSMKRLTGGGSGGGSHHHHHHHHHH


Columns and labels:
[1] = target: T1, human Trop-2 (on the surface of human …); assay: cell-based or functional assay
[2] = target: T1, human Trop-2 (on the surface of human …); assay: cell-based or functional assay; remark: listed apart in the source
[3] = target: T1, human Trop-2 (on the surface of human …); assay: flow cytometry, HCC38 cells
Experimental: (§1) Tumor cells expressing Trop-2 were prepared into a cell suspension (0.5-1×10⁶ cells/mL) using the FACS buffer (Miltenyi Biotec, 130-091-221), and the cell suspension was added to a 96-well V-bottom plate at 100 μL/well. After centrifugation and removal of the supernatant, the test antibodies diluted with the FACS buffer to different concentrations (0.006 nM-100 nM) were each added at 50 μL/well. The mixture was incubated in the dark in a 4° C. refrigerator for 1 h. The plate was then washed 3 times with the FACS buffer by centrifugation at 300 g, and Alexa Fluor 488 goat anti-human IgG (H+L) (Bio-legend, 409304, 1:500 dilution) at working concentration was added. The mixture was incubated in the dark in a 4° C. refrigerator for 40 min. The plate was then washed 3 times with the FACS buffer by centrifugation at 300 g, the geometric mean fluorescence intensity (MFI) was measured on a Sartorius iQue3 flow cytometer, and the binding EC₅₀ values of the antibodies for tumor cells with different Trop-2 expression levels were calculated

[4] = target: T1, human Trop-2 (on the surface of human …); assay: flow cytometry, HCC1806 cells
Experimental: as §1

human Trop-2-His [5] = target: T2, human Trop-2-His; assay: ELISA, plate-coated human Trop-2-His
Experimental: (§2) After the liquid was discarded, 2% BSA (SIGMA, B2064-100G) diluted with PBS was added at 300 μL/well for blocking, and the mixture was incubated at 37° C. for 2 h. After the blocking was completed, the blocking buffer was discarded, the plate was washed 3 times with PBST buffer (pH 7.4 PBS containing 0.1% tween-20), the antibody solution diluted in a gradient was added at 100 μL/well, and the mixture was incubated at 37° C. for 1 h. After the incubation was completed, the plate was washed 3 times with PBST, the goat anti-human IgG (H+L) (JacksonImmunoResearch, 109-035-098, 1:5000 dilution) was added at 100 μL/well, and the mixture was incubated at 37° C. for 1 h. After the plate was washed 3 times with PBST, a TMB chromogenic substrate (TIANGEN, PA107-01) was added at 100 μL/well. The mixture was incubated at room temperature for 10-15 min, and then 1 M H₂SO₄ was added at 50 μL/well to terminate the reaction. The absorbance values at 450 nm were taken using a microplate reader. The binding curves of antibodies for antigen were fitted using software, and the EC₅₀ values were calculated.

Macaque Trop-2-His = target: T3, Macaque Trop-2-His; assay: ELISA, plate-coated macaque Trop-2-His
Experimental: as §2, with “times with the PBST buffer” for “times with PBST buffer”

human Trop-2-His [6] = target: T2, human Trop-2-His; assay: SPR (Biacore 8K), antibody captured, Trop-2-His as analyte
From the text: The affinity of antibodies for human Trop-2-His was detected in the form of antibody capturing. The antibody was affinity-captured by a CM5 (Cat. #29149603, GE) biosensor chip conjugated with an anti-human IgG antibody (from human antibody capture kit, Cat. #29234600, GE), then the antigen human Trop-2-His flowed on the surface of the chip, and a Biacore 8K instrument was used for detecting reaction signals in real time to obtain association and dissociation curves. After dissociation was completed for each assay cycle, the chip was washed clean and regenerated with a regeneration buffer, 3M MgCl₂ (from human antibody capture kit, Cat. #29234600, GE). The association and dissociation curves were collected by Biacore 8K Control Software 3.0 in real time, and the data were analyzed by Biacore Insight Evaluation Software 3.0. The data were fitted using a Langmuir 1:1 model after double subtraction (namely, in each cycle, the contrast channel signal was subtracted from the experimental channel signal, and the sample signal was subtracted from the blank signal), and the association rate constant Ka, the dissociation rate constant Kd, and the equilibrium constant KD were calculated.

[7] = target: T1, human Trop-2 (on the surface of human …); assay: flow cytometry, OVCAR-3 cells
Experimental: as §1

Row | ADCC reporter (Jurkat-CD16a v158-NFAT-luciferase), target cell H322, EC50 [1] | ADCC reporter (Jurkat-CD16a v158-NFAT-luciferase), target cell HCC1806, EC50 [1] | EC50 [3] | EC50 [4] | EC50 (human Trop-2-His [5]) | EC50 (Macaque Trop-2-His) | Kd (human Trop-2-His [6]) | koff (human Trop-2-His [6]) | kon (human Trop-2-His [6]) | EC50 [7] | Binder | ADCC, PBMC killing (LDH), H322, EC50 [2] | ADCC, PBMC killing (LDH), H322, Maximum killing (%) [2] | ADCC, PBMC killing (LDH), HCC1806, EC50 [2] | ADCC, PBMC killing (LDH), HCC1806, Maximum killing (%) [2]
1 | 0.34 nM | 0.39 nM | 1.2 nM | 1.07 nM | 0.068 nM | 0.053 nM | 2.32 nM | 0.00284 s⁻¹ | 1.22e+06 M⁻¹ s⁻¹ | – | hz-Ab2-1.4 (antibody, human IgG1, kappa, V domains shown, Humanized antibody) VH: QVQLQESGPGLVKPSETLSLTCTVSGFSLTYYGIDWIRQPPGKGLEWIGVIWGSGNTKYNSALKSRVTISKDNSKSQVYLKLSSVTAADTAVYYCARFYEGFAYWGQGTLVTVSS VL: DIQMTQSPSSLSASVGDRVTITCKASQDINSYLSWFQQKPGKAPKTLIYRANRLVEGVPSRFSGSGSGQDYTLTISSLQPEDFATYYCLQYDEFPLTFGQGTKVEIKR | 0.01 nM | 48.7% | 0.02 nM | 34.8%
2 | 0.66 nM | 1.51 nM | 0.45 nM | 1.23 nM | 0.1 nM | 0.07 nM | 11.6 nM | 0.00483 s⁻¹ | 415000 M⁻¹ s⁻¹ | – | hz-Ab2-2.4 (antibody, human IgG1, kappa, V domains shown, Humanized antibody) VH: QVQLQESGPGLVKPSETLSLTCTVSGFSLTYYGIDWIRQPPGKGLEWIGVIWGSGNTKYNSALKSRVTISKDNSKSQVYLKLSSVTAADTAVYYCARFYEGFAYWGQGTLVTVSS VL: DIQMTQSPSSLSASVGDRVTITCRASQDINSYLSWFQQKPGKAPKTLIYRANRLVEGVPSRFSGSGSGQDFTLTISSLQPEDFATYYCLQYDEYPLTFGQGTKVEIKR | 0.07 nM | 46.7% | 0.15 nM | 33.3%
3 | 0.02 nM | 0.04 nM | 0.45 nM | 0.38 nM | 0.043 nM | 0.048 nM | – | – | – | 0.37 nM | ch-Ab35 (antibody, human IgG1, kappa, V domains shown, Mouse VH/VL on human IgG1 and human kappa constant regions; also called chimeric antibody of Ab35) VH: EVQLQQSGPDLVRPGASVKLSCKASGYTFTSSDINWVKQRPGQGLEWIGWIYPRDGSKKYNEKFKGKATLTVDTSSSTAYMEVHSLTSEDSAVYFCATRFATVVSNYGLDPWGQGTSVTVSS VL: AIVLTQSPAIMSASPGEKVTMTCSASSSVNYIYWYQRKPGSSPRLLIYDTSNLASGVPVRFSGSGSGTSYSLTISRMEAEDAATYYCQQWNSYPLTFGAGTKLELKR | 0.01 nM | 51.9% | 0.02 nM | 38%
4 | 0.04 nM | 0.08 nM | 0.64 nM | 0.65 nM | 0.165 nM | 0.093 nM | – | – | – | 1.02 nM | ch-Ab21 (antibody, human IgG1, kappa, V domains shown, Mouse VH/VL on human IgG1 and human kappa constant regions; also called chimeric antibody of Ab21) VH: EVQLKQSGPGLVQPSQSLSITCTVSGFSLRNYGVHWVRQSPGKGLEWLGVIWSSGTTDYNAAFISRLSITKDNSKSQVFFKMNSLQVDDTAIYNCARDGDYDYYTMDYWGQGTSVTVSS VL: AIVLTQSPASLAVSLGQRATISCRASKSVSTSAYSYIHWYQQKPGQPPKLLIYLTSNLESGVPARFSGSGSGTDFTLNIHPVEEEDAATYYCQHSRELPYTFGGGTKLEIKR | 0.13 nM | 54% | 0.03 nM | 40.3%
5 | – | – | 0.55 nM | 0.64 nM | 0.162 nM | 0.098 nM | 1.2 nM | 0.000514 s⁻¹ | 429000 M⁻¹ s⁻¹ | 0.62 nM | hz-Ab21-1.1 (antibody, human IgG1, kappa, V domains shown, Humanized antibody) VH: EVQLVESGGGLVKPGGSLRLSCAASGFTLRNYGVHWVRQAPGKGLEWVGVIWSSGTTDYAAPVKGRFTISKDNSKNTLYLQMNSLKTEDTAVYYCTRDGDYDYYTMDYWGQGTLVTVSS VL: EIVLTQSPATLSLSPGERATLSCRASKSVSTSAYSYIHWYQQKPGQAPRLLIYLTSNLESGIPARFSGSGSGTDFTLTISSLEPEDFAVYYCQHSRELPYTFGQGTKVEIKR | – | – | – | –
6 | – | – | 0.66 nM | 1.23 nM | 0.248 nM | 0.086 nM | 0.973 nM | 0.000438 s⁻¹ | 450000 M⁻¹ s⁻¹ | 0.67 nM | hz-Ab21-1.2 (antibody, human IgG1, kappa, V domains shown, Humanized antibody) VH: EVQLVESGGGLVKPGGSLRLSCAASGFTLRNYGVHWVRQAPGKGLEWVGVIWSSGTTDYNAAFISRFTISKDNSKNTLYLQMNSLKTEDTAVYYCTRDGDYDYYTMDYWGQGTLVTVSS VL: EIVLTQSPATLSLSPGERATLSCRASKSVSTSAYSYIHWYQQKPGQAPRLLIYLTSNLESGIPARFSGSGSGTDFTLTISSLEPEDFAVYYCQHSRELPYTFGQGTKVEIKR | – | – | – | –
